Data taken from US8129557B2, “Phosphonic acid diester derivative and method for producing thereof” (priority 2005, dated 2012).

Substrate: Cc1cc(=O)oc2cc(NC(=O)CC[C@H](N)C(=O)O)ccc12
Assay: Hydrolytic assay of E. coli GGT (Michaelis constant of substrate)
Type: biochemical, Escherichia coli K-12
Conditions: other: E. coli GGT, pH 5.5, 25° C.
Description: In the experiment, at first, Michaelis constants (Km) for 7-(γ-L-glutamylamino)-4-methylcoumarin as substrate were measured by a fluorescence method [Smith, G. D.; Ding, J. L.; Peters, T. J. Anal. Biochem. 100, 136-139 (1979)] for the hydrolytic activities of E-coli GGT and human GGT.
In the hydrolytic assay of E. coli GGT, 10 μL of a […] enzyme solution was added to a 100 mM succinic acid-sodium hydroxide buffer solution (pH 5.5) in a total volume of 1 mL containing 100 μL of 2 μM substrate aqueous solution. The product, 7-amino-4-methylcoumarin (AMC), released along with the enzyme reaction was traced continuously at 25° C. using a fluorospectrophotometer F-2000 manufactured by Hitachi Ltd. (excitation wavelength: 350 nm, emission wavelength: 440 nm). The AMC concentration was separately measured by forming a calibration curve showing the relation of the fluorescence intensity (F) and the concentration (C) using standard solutions and was calculated from the relational expression (1) of the fluorescence intensity alteration (ΔF) and concentration alteration (ΔC).
[Expression 1] ΔF/ΔC=0.11 nM^−1 (1)
The fluorescence intensity was proportional to the AMC concentration up to 2.0 μM. As a result, Km value for 7-(γ-L-glutamylamino)-4-methylcoumarin was 0.2 μM under this condition.

B1: E. coli GGT (Escherichia coli K-12) (protein)
chain 1: APPAPPVSYGVEEDVFHPVRAKQGMVASVDATATQVGVDILKEGGNAVDAAVAVGYALAVTHPQAGNLGGGGFMLIRSKNGNTTAIDFREMAPAKATRDMFLDDQGNPDSKKSLTSHLASGTPGTVAGFSLALDKYGTMPLNKVVQPAFKLARDGFIVNDALADDLKTYGSEVLPNHENSKAIFWKEGEPLKKGDTLVQANLAKSLEMIAENGPDEFYKGTIAEQIAQEMQKNGGLITKEDLAAYKAVERTPISGDYRGYQVYSMPPPSSGGIHIVQILNILENFDMKKYGFGSADAMQIMAEAEKYAYADRSEYLGDPDFVKVPWQALTNKAYAKSIADQIDINKAKPSSEIRPGKLAPYESNQ
chain 2: TTHYSVVDKDGNAVAVTYTLNTTFGTGIVAGESGILLNNQMDDFSAKPGVPNVYGLVGGDANAVGPNKRPLSSMSPTIVVKDGKTWLVTGSPGGSRIITTVLQMVVNSIDYGLNVAEATNAPRFHHQWLPDELRVEKGFSPDTLKLLEAKGQKVALKEAMGSTQSIMVGPDGELYGASDPRSVDDLTAGY
notes: was used as a purified enzyme of E-coli GGT; made in house
  Km: 0.2 µM
